Results on 3 substances are retold here after article PMC5986104.

The target of this test is NOTCH2-Myc (human) (UniProt Q04721).
Chain of UniProt Q04721 (Q04721 26-2471): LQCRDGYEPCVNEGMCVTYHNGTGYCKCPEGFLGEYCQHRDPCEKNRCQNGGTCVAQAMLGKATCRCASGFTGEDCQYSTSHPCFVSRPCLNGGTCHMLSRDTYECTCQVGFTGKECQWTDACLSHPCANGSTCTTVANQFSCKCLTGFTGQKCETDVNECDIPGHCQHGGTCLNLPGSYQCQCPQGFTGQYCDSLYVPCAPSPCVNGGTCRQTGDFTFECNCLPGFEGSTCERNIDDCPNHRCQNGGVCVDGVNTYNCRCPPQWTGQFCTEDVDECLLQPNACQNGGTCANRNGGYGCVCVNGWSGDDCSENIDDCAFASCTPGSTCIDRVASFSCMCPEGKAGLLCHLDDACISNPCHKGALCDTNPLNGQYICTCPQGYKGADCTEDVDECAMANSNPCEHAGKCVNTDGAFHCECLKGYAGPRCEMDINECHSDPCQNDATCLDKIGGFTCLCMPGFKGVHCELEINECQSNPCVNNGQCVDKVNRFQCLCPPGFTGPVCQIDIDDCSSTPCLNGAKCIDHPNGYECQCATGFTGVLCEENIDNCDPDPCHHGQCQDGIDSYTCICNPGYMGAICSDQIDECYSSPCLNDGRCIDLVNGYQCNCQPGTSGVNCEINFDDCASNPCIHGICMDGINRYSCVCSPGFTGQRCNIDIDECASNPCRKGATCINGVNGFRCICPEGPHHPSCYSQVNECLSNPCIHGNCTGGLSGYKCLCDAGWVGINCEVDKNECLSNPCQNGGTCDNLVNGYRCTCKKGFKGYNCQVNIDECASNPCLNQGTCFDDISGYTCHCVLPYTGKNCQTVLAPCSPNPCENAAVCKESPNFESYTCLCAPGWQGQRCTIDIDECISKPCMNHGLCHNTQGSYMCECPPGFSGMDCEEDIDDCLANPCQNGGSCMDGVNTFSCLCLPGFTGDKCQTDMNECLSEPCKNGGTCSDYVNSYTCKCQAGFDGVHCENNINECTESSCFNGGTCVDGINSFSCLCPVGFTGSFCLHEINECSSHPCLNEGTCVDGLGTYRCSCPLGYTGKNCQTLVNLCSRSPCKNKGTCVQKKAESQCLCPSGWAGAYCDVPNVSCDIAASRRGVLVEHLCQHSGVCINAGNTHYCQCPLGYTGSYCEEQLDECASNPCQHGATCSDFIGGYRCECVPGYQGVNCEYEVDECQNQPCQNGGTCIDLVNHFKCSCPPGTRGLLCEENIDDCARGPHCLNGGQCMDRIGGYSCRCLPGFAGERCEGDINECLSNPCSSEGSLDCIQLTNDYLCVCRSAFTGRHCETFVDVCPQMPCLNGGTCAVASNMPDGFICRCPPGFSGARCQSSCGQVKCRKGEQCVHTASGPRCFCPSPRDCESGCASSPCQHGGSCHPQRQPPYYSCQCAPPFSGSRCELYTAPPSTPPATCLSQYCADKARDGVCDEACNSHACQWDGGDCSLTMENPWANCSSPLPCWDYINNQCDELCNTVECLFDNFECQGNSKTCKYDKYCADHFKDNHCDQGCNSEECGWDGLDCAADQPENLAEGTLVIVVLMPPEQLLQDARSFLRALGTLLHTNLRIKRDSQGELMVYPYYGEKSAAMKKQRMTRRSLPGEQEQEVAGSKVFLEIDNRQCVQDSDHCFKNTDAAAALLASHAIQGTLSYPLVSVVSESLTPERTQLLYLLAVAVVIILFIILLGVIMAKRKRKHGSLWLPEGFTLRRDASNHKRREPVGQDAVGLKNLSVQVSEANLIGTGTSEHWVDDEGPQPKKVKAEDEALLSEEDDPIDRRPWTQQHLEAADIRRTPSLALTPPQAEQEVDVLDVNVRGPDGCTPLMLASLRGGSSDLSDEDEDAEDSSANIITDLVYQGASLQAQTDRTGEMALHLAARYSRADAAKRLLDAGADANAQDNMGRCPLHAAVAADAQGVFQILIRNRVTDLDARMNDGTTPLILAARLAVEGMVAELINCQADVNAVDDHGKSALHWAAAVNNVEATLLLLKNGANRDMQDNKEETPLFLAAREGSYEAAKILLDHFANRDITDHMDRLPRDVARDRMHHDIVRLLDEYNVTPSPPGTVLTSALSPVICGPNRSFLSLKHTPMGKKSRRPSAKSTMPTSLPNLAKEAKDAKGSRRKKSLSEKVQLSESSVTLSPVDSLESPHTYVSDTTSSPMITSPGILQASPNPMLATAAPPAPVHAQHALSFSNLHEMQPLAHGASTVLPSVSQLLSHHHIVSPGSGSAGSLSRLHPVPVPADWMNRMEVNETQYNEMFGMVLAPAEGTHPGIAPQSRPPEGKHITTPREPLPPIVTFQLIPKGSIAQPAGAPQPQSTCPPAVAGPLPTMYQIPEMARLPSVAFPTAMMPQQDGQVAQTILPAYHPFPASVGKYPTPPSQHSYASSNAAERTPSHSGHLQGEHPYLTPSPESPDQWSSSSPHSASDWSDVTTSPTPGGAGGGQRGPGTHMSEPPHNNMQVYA

For “NOTCH2NL-HA^L,T197I (from UniProt P0DPK3 26-275) (natural protein)”, the NOTCH2-GAL4 reporter activation under baseline conditions, increase (Figure 6J) was 63%. The same measure, in the same setting: to “NOTCH2NL^L (from UniProt P0DPK3 26-275) (natural protein)” belongs 21%.

As to NOTCH2NL^Sh,T197I (natural protein), the NOTCH2-GAL4 reporter activation under baseline conditions, increase (Figure 6H) turned out to be 31% and the NOTCH2-GAL4 reporter activation with JAG2 co-culture, increase (Figure 6I) came out at 53%.
